Assays:
apc_human APC [1] = molecular target: apc_human APC (UniProt P25054)
apc_human APC [2] = molecular target: apc_human APC (UniProt P25054); remark: listed apart in the source

Chain of apc_human APC (P25054 whole entry): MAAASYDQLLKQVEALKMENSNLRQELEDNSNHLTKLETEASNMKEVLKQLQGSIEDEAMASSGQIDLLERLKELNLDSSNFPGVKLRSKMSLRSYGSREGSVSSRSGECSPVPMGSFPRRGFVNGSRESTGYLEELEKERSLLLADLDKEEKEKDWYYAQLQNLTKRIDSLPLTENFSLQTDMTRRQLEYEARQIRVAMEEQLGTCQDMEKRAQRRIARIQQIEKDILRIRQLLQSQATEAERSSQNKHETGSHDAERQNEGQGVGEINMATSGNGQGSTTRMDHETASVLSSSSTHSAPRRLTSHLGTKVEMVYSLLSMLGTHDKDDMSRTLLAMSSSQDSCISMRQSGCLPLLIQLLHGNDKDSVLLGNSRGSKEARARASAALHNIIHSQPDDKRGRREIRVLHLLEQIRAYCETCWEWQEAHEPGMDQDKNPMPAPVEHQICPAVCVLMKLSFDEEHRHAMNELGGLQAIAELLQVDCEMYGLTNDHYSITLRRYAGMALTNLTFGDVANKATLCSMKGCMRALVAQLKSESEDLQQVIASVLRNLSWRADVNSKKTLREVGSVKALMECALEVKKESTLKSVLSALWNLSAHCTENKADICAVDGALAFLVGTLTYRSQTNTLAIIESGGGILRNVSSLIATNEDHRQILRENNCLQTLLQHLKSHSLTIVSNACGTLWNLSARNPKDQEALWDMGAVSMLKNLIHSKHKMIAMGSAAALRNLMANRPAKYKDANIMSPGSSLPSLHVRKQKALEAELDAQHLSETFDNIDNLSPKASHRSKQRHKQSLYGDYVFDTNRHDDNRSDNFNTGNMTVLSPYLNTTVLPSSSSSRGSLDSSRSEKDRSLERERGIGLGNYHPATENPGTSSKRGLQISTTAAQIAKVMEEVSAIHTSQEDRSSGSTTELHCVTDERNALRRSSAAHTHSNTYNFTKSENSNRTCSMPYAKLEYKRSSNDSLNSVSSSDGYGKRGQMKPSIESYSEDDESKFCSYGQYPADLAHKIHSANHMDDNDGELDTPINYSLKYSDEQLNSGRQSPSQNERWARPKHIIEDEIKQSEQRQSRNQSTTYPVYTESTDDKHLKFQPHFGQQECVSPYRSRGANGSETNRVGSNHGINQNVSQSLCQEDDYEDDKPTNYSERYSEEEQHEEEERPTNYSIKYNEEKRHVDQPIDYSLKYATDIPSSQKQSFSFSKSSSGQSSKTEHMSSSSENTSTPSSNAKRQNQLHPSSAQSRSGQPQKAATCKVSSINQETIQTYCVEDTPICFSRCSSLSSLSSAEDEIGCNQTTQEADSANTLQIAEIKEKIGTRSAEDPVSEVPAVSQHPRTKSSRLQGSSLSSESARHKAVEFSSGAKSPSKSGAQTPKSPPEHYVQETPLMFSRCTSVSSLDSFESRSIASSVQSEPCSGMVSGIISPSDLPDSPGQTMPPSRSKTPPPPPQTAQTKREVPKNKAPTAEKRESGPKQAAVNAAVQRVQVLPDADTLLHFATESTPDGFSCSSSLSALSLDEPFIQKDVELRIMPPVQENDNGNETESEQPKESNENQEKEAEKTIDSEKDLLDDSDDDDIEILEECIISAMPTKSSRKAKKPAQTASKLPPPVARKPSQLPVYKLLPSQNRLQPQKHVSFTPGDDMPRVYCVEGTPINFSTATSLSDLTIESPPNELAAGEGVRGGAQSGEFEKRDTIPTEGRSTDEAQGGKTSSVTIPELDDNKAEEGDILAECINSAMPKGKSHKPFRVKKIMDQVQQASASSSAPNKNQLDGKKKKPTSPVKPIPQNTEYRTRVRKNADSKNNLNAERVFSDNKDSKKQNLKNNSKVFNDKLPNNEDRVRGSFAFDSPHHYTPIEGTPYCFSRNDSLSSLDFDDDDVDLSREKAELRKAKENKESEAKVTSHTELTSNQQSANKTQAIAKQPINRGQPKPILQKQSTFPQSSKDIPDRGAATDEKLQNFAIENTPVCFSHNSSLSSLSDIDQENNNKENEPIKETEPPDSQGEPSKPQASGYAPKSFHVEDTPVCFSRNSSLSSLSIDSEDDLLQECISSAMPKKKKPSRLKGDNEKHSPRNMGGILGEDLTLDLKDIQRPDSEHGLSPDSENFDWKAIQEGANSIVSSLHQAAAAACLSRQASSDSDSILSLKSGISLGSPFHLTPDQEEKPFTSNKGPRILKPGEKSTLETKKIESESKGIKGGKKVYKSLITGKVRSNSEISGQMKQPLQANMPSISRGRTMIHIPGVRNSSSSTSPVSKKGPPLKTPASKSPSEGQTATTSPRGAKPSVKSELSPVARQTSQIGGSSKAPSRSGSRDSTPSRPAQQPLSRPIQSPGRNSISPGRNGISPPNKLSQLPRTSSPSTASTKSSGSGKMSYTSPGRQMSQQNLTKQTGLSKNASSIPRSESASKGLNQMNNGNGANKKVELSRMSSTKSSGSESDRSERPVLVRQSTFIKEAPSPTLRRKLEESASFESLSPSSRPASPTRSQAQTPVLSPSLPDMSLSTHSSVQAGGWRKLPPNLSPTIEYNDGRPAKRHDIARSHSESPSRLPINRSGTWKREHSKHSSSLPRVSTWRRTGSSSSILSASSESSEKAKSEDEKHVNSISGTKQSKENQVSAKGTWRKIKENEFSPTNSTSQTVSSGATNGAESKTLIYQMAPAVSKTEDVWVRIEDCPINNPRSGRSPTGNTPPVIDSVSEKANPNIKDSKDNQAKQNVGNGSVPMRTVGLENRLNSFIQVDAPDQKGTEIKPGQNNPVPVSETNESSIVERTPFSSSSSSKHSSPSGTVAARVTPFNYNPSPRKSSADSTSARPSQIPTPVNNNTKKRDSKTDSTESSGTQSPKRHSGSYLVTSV
Chain of Disks large homolog 1 (Homo sapiens) (Q12959 whole entry, looked up, stated change not applied): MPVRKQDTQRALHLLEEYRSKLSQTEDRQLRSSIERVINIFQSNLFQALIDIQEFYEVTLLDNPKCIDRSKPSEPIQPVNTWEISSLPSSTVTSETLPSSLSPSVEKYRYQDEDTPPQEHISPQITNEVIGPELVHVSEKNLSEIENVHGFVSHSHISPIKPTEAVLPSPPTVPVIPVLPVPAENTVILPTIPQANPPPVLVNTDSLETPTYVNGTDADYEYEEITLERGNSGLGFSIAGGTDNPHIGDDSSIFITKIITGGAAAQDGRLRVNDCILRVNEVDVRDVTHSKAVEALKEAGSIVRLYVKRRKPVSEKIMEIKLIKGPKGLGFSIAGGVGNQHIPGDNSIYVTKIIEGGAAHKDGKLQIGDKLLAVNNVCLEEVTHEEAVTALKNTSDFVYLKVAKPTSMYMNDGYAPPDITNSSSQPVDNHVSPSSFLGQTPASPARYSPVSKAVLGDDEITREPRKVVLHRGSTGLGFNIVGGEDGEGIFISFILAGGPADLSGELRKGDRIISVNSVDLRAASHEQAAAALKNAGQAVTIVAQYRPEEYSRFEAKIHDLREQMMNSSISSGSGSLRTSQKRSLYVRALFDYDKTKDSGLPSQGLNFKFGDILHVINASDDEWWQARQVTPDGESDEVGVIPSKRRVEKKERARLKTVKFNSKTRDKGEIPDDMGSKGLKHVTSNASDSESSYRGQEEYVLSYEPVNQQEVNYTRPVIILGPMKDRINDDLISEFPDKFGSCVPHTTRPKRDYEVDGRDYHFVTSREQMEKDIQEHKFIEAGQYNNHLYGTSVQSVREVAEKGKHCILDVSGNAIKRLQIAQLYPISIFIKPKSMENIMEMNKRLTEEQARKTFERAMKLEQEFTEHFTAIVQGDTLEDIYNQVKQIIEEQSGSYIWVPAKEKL

With “Disks large homolog 1 (Homo sapiens) (from UniProt Q12959) Q340P” the “effect of a mutation on the interaction” value (apc_human APC [1]) was “disrupting interaction strength” and the “effect of a mutation on the interaction” value (apc_human APC [2]) was “decreasing interaction strength”.

From IntAct's records for PubMed 21858148
